Laboratory results published in patent US20220119534A1 (DRAGONFLY THERAPEUTICS, published 2022).
Like-named read-outs stand apart in the source and are kept apart here.

Key:
[1] = target: T1, Human CLEC12A-His (recombinant, K244 WT) (human, UniProt Q5QGZ9 65-265); assay: SPR, two-state fit (kd1); control sample
T1 construct: Made in house (Dragonfly Tx); also called hCLEC12A; hCLEC12A-His; not shown: His tag
T1 sequence: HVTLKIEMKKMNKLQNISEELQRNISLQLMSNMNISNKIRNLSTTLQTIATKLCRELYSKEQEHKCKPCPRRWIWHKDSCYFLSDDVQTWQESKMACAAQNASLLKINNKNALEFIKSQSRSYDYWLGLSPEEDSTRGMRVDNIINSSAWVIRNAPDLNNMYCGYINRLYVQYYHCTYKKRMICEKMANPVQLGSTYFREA

[2] = target: T2, Human CD16a V158 (FcγRIIIa V158) (human, UniProt P08637 17-208, biotinylated); assay: SPR; control sample
T2 construct: Bought recombinant receptor; also called hCD16aV; hFcγRIIIa V158
T2 sequence (P08637 17-208 F176V limits assumed): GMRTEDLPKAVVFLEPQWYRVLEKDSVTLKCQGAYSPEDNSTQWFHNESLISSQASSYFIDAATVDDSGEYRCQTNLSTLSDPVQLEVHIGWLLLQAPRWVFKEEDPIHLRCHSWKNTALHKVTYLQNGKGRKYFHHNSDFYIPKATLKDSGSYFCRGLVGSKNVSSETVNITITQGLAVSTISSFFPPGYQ

[3] = target: T3, mFc-hNKG2D (recombinant mFc-tagged human NKG2D dimer) (human, UniProt P26718 73-216); assay: SPR; control sample
T3 construct: extracellular domain; Made in house; not shown: mouse Fc tag
T3 sequence (looked up): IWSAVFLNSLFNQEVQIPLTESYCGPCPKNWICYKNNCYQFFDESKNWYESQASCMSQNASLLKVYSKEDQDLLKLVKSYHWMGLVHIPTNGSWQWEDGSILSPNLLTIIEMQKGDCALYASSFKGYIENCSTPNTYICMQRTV

[4] = target: T1, Human CLEC12A-His (recombinant, K244 WT); assay: SPR, two-state fit (kd1); control sample; remark: listed apart in the source
[5] = target: T4, Human CLEC12A expressed on cells (Ba/F3-hCLEC12A, PL21, HL60) (human, UniProt Q5QGZ9 1-265); assay: cell-based or functional assay
T4 sequence: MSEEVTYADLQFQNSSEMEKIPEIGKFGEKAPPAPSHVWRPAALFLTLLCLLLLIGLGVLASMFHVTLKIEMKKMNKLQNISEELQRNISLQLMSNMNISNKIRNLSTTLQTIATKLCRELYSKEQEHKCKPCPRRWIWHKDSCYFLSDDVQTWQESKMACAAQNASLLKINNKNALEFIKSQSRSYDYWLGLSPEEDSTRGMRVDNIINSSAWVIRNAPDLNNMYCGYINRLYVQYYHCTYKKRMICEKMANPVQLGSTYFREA

Human CD16b = target: T5, Human CD16b (human, UniProt O75015 17-200, limits assumed, biotinylated); assay: SPR, steady state fit; average for AB0192
T5 construct: Bought recombinant receptor; also called hFcγRIIIb
T5 sequence (O75015 17-200 limits assumed): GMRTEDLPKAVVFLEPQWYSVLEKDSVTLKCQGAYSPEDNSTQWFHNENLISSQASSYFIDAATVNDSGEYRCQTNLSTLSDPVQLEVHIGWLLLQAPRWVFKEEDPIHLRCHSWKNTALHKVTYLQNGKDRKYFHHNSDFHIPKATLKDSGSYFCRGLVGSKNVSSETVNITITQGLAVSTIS

De-glycosylated CLEC12A = target: T6, De-glycosylated CLEC12A (human, UniProt Q5QGZ9 65-265, treated with PNGase F (N-linked glycans removed)); assay: SPR, de-glycosylated CLEC12A; average of 3 replicates
T6 construct: Recombinant human CLEC12A after PNGase F; also called de-glycosylated hCLEC12A
T6 sequence: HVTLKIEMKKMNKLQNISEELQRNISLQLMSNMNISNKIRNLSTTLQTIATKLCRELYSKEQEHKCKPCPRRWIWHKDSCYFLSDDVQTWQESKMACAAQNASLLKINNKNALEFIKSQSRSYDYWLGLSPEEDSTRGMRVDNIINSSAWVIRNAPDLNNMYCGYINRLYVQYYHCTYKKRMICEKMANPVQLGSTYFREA

Human CLEC12A-His = target: T7, Human CLEC12A-His (human, UniProt Q5QGZ9 65-265); assay: SPR; sample after pH 5.0, 40 C, 2 weeks
T7 construct: Recombinant soluble protein made in house; also called hCLEC12A-His; hCLEC12A; not shown: His tag
T7 sequence: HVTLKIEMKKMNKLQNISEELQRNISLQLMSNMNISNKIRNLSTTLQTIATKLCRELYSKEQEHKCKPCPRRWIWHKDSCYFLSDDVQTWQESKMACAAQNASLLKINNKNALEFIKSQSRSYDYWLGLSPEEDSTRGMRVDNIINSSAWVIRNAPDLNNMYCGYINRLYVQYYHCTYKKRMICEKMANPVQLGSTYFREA

Human CD16a V158 = target: T8, Human CD16a V158 (human, UniProt P08637 17-208, biotinylated); assay: SPR; sample after pH 5.0, 40 C, 2 weeks
T8 construct: Bought recombinant receptor; also called hCD16a (V158); hFcγRIIIa V158
T8 sequence (P08637 17-208 F176V limits assumed): as the sequence (P08637 17-208 F176V limits assumed) above

mFc-hNKG2D = target: T9, mFc-hNKG2D (human, UniProt P26718 73-216); assay: SPR; sample after pH 5.0, 40 C, 2 weeks
T9 construct: extracellular domain; Recombinant mFc-tagged NKG2D dimer, made in house; also called human NKG2D; not shown: mouse Fc tag
T9 sequence (looked up): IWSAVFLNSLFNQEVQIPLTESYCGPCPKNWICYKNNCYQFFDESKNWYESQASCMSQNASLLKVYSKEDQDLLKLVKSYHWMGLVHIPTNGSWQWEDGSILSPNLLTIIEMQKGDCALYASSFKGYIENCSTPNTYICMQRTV

BCMA = target: T10, BCMA; assay: SPR specificity test
T10 chain: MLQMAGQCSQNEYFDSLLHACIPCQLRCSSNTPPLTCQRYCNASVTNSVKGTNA

HER2 = assay: SPR specificity test
recombinant human FcRn = target: T11, recombinant human FcRn (human, UniProt P55899 24-297; P61769 21-119); assay: SPR 25C, pH 6.0, steady state; pH 6.0; first replicate
T11 construct: also called hFcRn
T11 sequence (P55899 24-297 limits assumed, chain 1 of 2): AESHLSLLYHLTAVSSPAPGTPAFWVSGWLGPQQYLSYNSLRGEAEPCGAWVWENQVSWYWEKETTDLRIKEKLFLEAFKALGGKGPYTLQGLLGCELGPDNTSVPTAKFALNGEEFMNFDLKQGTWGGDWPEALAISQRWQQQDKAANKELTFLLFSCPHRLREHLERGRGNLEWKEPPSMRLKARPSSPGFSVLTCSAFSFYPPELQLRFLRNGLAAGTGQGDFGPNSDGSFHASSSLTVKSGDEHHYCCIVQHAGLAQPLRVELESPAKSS
T11 sequence (P61769 21-119 limits assumed, chain 2 of 2): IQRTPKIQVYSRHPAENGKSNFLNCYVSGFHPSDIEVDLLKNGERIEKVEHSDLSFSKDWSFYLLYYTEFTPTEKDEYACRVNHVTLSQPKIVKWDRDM

B1: AB0089 TriNKET (bispecific antibody, human IgG1, kappa)
chain: QLQLQESGPGLVKPSETLSLTCTVSGFSLTNYGLHWIRQPPGKCLEWIGVIWVGGATDYNPSLKSRVTISVDTSKNQFSLKLSSVQAADTAVYYCAKGDYGDTLDYWGQGTLVTVSSGGGGSGGGGSGGGGSGGGGSDIQMTQSPSSLSASVGDRVTITCHASQNINFWLSWYQQKPGKAPKLLIYEASNLHTGVPSRFSGSGSGTDFTLTISSLQPEDFATYYCQQSHSYPLTFGCGTKLEIKGSDKTHTCPPCPAPELLGGPSVFLFPPKPKDTLMISRTPEVTCVVVDVSHEDPEVKFNWYVDGVEVHNAKTKPREEQYNSTYRVVSVLTVLHQDWLNGKEYKCKVSNKALPAPIEKTISKAKGQPREPRVYTLPPCRDELTKNQVSLTCLVKGFYPSDIAVEWESNGQPENNYKTTPPVLVSDGSFTLYSKLTVDKSRWQQGNVFSCSVMHEALHNHYTQKSLSLSPG
heavy: EVQLVESGGGLVKPGGSLRLSCAASGFTFSSYSMNWVRQAPGKGLEWVSSISSSSSYIYYADSVKGRFTISRDNAKNSLYLQMNSLRAEDTAVYYCARGAPIGAAAGWFDPWGQGTLVTVSSASTKGPSVFPLAPSSKSTSGGTAALGCLVKDYFPEPVTVSWNSGALTSGVHTFPAVLQSSGLYSLSSVVTVPSSSLGTQTYICNVNHKPSNTKVDKKVEPKSCDKTHTCPPCPAPELLGGPSVFLFPPKPKDTLMISRTPEVTCVVVDVSHEDPEVKFNWYVDGVEVHNAKTKPREEQYNSTYRVVSVLTVLHQDWLNGKEYKCKVSNKALPAPIEKTISKAKGQPREPQVCTLPPSRDELTENQVSLTCLVKGFYPSDIAVEWESNGQPENNYKTTPPVLDSDGSFFLYSWLTVDKSRWQQGNVFSCSVMHEALHNHYTQKSLSLSPG
light: DIQMTQSPSSVSASVGDRVTITCRASQGISSWLAWYQQKPGKAPKLLIYAASSLQSGVPSRFSGSGSGTDFTLTISSLQPEDFATYYCQQGVSFPRTFGGGTKVEIKRTVAAPSVFIFPPSDEQLKSGTASVVCLLNNFYPREAKVQWKVDNALQSGNSQESVTEQDSKDSTYSLSSTLTLSKADYEKHKVYACEVTHQGLSSPVTKSFNRGEC
notes: F3' format heterodimer of three chains; human IgG1 Fc with EW-RVT and Y349C/S354C mutations; also called AB0089 Lot AB0089-002; CLEC12A TriNKET AB0089
koff [1]: 0.042 s⁻¹
Kd [2]: 322 nM
koff [2]: 0.0278 s⁻¹
kon [2]: 86400 M⁻¹ s⁻¹
Kd [3]: 797 nM
koff [3]: 0.135 s⁻¹
kon [3]: 169000 M⁻¹ s⁻¹
koff [4]: 0.0476 s⁻¹
EC50, NK cell induction of IFNγ and CD107a in co-culture with HL60 cells (mean of three donors) [5]: 0.05 nM

B2: AB0192 TriNKET (other)
chain: EVQLVESGGGVVQPGGSLRLSCAASGFTFNAFGMHWVRQAPGKCLEWVAFISSGSTSIYYANTVKGRFTISRDNSKNTLYLQMNSLRAEDTAVYYCARDGYPTGGAMDYWGQGTSVTVSSGGGGSGGGGSGGGGSGGGGSDIQMTQSPSSLSASVGDRVTITCKASQDIYNYLSWFQQKPGKAPKPLIYRANILVSGVPSRFSGSGSGQDYTFTISSLQPEDIATYYCLQFDAFPFTFGCGTKLEIKGSDKTHTCPPCPAPELLGGPSVFLFPPKPKDTLMISRTPEVTCVVVDVSHEDPEVKFNWYVDGVEVHNAKTKPREEQYNSTYRVVSVLTVLHQDWLNGKEYKCKVSNKALPAPIEKTISKAKGQPREPRVYTLPPCRDELTKNQVSLTCLVKGFYPSDIAVEWESNGQPENNYKTTPPVLVSDGSFTLYSKLTVDKSRWQQGNVFSCSVMHEALHNHYTQKSLSLSPG
heavy: EVQLVESGGGLVKPGGSLRLSCAASGFTFSSYSMNWVRQAPGKGLEWVSSISSSSSYIYYADSVKGRFTISRDNAKNSLYLQMNSLRAEDTAVYYCARGAPIGAAAGWFDPWGQGTLVTVSSASTKGPSVFPLAPSSKSTSGGTAALGCLVKDYFPEPVTVSWNSGALTSGVHTFPAVLQSSGLYSLSSVVTVPSSSLGTQTYICNVNHKPSNTKVDKKVEPKSCDKTHTCPPCPAPELLGGPSVFLFPPKPKDTLMISRTPEVTCVVVDVSHEDPEVKFNWYVDGVEVHNAKTKPREEQYNSTYRVVSVLTVLHQDWLNGKEYKCKVSNKALPAPIEKTISKAKGQPREPQVCTLPPSRDELTENQVSLTCLVKGFYPSDIAVEWESNGQPENNYKTTPPVLDSDGSFFLYSWLTVDKSRWQQGNVFSCSVMHEALHNHYTQKSLSLSPG
light: DIQMTQSPSSVSASVGDRVTITCRASQGISSWLAWYQQKPGKAPKLLIYAASSLQSGVPSRFSGSGSGTDFTLTISSLQPEDFATYYCQQGVSFPRTFGGGTKVEIKRTVAAPSVFIFPPSDEQLKSGTASVVCLLNNFYPREAKVQWKVDNALQSGNSQESVTEQDSKDSTYSLSSTLTLSKADYEKHKVYACEVTHQGLSSPVTKSFNRGEC
notes: the condition stands under assay; also called AB0192 Lot AB0192-005
Kd (Human CD16b): 6000 nM
Kd (De-glycosylated CLEC12A): 0.27 nM
koff (De-glycosylated CLEC12A): 0.000348 s⁻¹
kon (De-glycosylated CLEC12A): 1.31e+06 M⁻¹ s⁻¹
Kd (Human CLEC12A-His): 1.65 nM
koff (Human CLEC12A-His): 0.0013 s⁻¹
kon (Human CLEC12A-His): 787000 M⁻¹ s⁻¹
Kd (Human CD16a V158): 192 nM
koff (Human CD16a V158): 0.0208 s⁻¹
kon (Human CD16a V158): 108000 M⁻¹ s⁻¹
Kd (mFc-hNKG2D): 574 nM
koff (mFc-hNKG2D): 0.12 s⁻¹
kon (mFc-hNKG2D): 210000 M⁻¹ s⁻¹

B3: F3'-1602 TriNKET (other)
chain: QLQLQESGPGLVKPSETLSLTCTVSGFSLTNYGLHWIRQPPGKCLEWIGVIWSGGKTDYNPSLKSRVTISKDTSKNQFSLKLSSVQAADTAVYYCAKYDYDDSLDYWGQGTLVTVSSGGGGSGGGGSGGGGSGGGGSDIQMTQSPSSLSASVGDRVTITCHASQNINFWLSWYQQKPGKAPKLLIYEASNLHTGVPSRFSGSGSGTRFTLTISSLQPEDIATYYCQQSHSYPLTFGCGTKLEIKGSDKTHTCPPCPAPELLGGPSVFLFPPKPKDTLMISRTPEVTCVVVDVSHEDPEVKFNWYVDGVEVHNAKTKPREEQYNSTYRVVSVLTVLHQDWLNGKEYKCKVSNKALPAPIEKTISKAKGQPREPRVYTLPPCRDELTKNQVSLTCLVKGFYPSDIAVEWESNGQPENNYKTTPPVLVSDGSFTLYSKLTVDKSRWQQGNVFSCSVMHEALHNHYTQKSLSLSPG
heavy: EVQLVESGGGLVKPGGSLRLSCAASGFTFSSYSMNWVRQAPGKGLEWVSSISSSSSYIYYADSVKGRFTISRDNAKNSLYLQMNSLRAEDTAVYYCARGAPIGAAAGWFDPWGQGTLVTVSSASTKGPSVFPLAPSSKSTSGGTAALGCLVKDYFPEPVTVSWNSGALTSGVHTFPAVLQSSGLYSLSSVVTVPSSSLGTQTYICNVNHKPSNTKVDKKVEPKSCDKTHTCPPCPAPELLGGPSVFLFPPKPKDTLMISRTPEVTCVVVDVSHEDPEVKFNWYVDGVEVHNAKTKPREEQYNSTYRVVSVLTVLHQDWLNGKEYKCKVSNKALPAPIEKTISKAKGQPREPQVCTLPPSRDELTENQVSLTCLVKGFYPSDIAVEWESNGQPENNYKTTPPVLDSDGSFFLYSWLTVDKSRWQQGNVFSCSVMHEALHNHYTQKSLSLSPG
light: DIQMTQSPSSVSASVGDRVTITCRASQGISSWLAWYQQKPGKAPKLLIYAASSLQSGVPSRFSGSGSGTDFTLTISSLQPEDFATYYCQQGVSFPRTFGGGTKVEIKRTVAAPSVFIFPPSDEQLKSGTASVVCLLNNFYPREAKVQWKVDNALQSGNSQESVTEQDSKDSTYSLSSTLTLSKADYEKHKVYACEVTHQGLSSPVTKSFNRGEC
notes: CLEC12A scFv-Fc, NKG2D A49MI Fab-Fc, human IgG1 Fc; also called AB0237
binding result (BCMA): no binding (tested: 500 nM)
binding result (HER2): no binding (tested: 500 nM)
Kd (recombinant human FcRn): 1300 nM
